PMC2690590, “Functional recombinant MHC class II molecules and high-throughput peptide-binding assays” (Immunome Research, 2009)

Legend:
DR1 (DRA*0101/DRB1*0101) [1] = molecular target: T1, DR1 (DRA*0101/DRB1*0101) (Homo sapiens, UniProt P01903+P01911, A100R/D57E/F55L/F60I/F76Y/I96L/L162R/M171V/P40L/Q125E/R42F/V115G/Y59C); test: Competitive peptide-HLA-DR1 binding assay, radioactive spun column; conditions: competition with 125I labelled (Y)HA306–318, spun column assay
DR1 (DRA*0101/DRB1*0101) [2] = molecular target: T1, DR1 (DRA*0101/DRB1*0101); test: Scintillation proximity assay (SPA), competitive, DR1; type: binding; conditions: 30 nM DR1 α and β chain; 2 nM 125I labeled YHA306-318; refolding buffer pH 8; 24 h 18°C; streptavidin SPA beads

B1: Invariant Chain: a recombinant version of the extracellular part of human invariant chain (positions 73–208) (protein)
chain: QQQGRLDKLTVTSQNLQLENLRMKLPKPPKPVSKMRMATPLLMQALPMGALPQGPMQNATKYGNMTEDHVMHLLQNADPLKVYPPLKGSFPENLRHLKNTMETIDWKVFESWMHHWLLFEMSRHSLEQKPTDAPPK
- binder to DR1 (in words) (DR1 (DRA*0101/DRB1*0101) [1]): good binders
- binder to DR1 (in words), SPA (DR1 (DRA*0101/DRB1*0101) [2]): good binders
